Measured values published in the nanobody polyreactivity screen of Harvey et al. (2022).

Assay: yeast display, Sf9 membrane polyspecificity reagent, FACS + sequencing; frameworks hold sequencing errors
Summary of the method: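 In a synthetic yeast display library (Saccharomyces cerevisiae BJ5465), nanobody expression was induced with galactose for 36–48 hours. FACS gates were set low and high (top ~1%) using anti-HA fluorescence for expression and streptavidin fluorescence for binding of the Sf9 membrane reagent. Each polyreactivity label is drawn from the gate of origin.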

| Sequence | polyreactivity (PSR sort gate) |
| --- | --- |
| QVQIVESGGGLVQAGGSLRLSCAASGSIFFAYAMGSYRQAPGKERELVAAITGSGGSTYADSVKGRFTISRDNAKNTVYVQMNSLKPEDTAVYYCAKDHYYYPYKRLFVGHEYWGQGTQVTVSS | low polyreactivity |
| QVQIVESGGGLVQAGGSLRLSCAASGSIFPINAMGWYRQAPGKERELVAVITSGGGGTYYADCVKGRYTISRDNAKNTVYLQMNSLKPEDPAGYYCAKRLSRKWQKFGYWGQGTQVTVSS | low polyreactivity |
| QVQIVESGGGLVQAGGSLRLSCAASGSIFRGYAKGWYRQAPGKERELVAAITQRAGSTYYADSVKGRFTISRDNAKNTVYLQMNSLKPEDTAVYYCAADVFYVFLHRVWYNYWGQGTQVTVSS | low polyreactivity |
| QVQIVESGGGLVQAGGSLRLSCAASGSIFRSYAMGWYRQAPGKERELVAAITSSSGSTYYADSVKGRFTISRDNAKNTVYLQMNSLKPEDTAVYSCAAGSPRRYRYDYWGQGTQVTVSS | high polyreactivity |
| QVQIVESGGGLVQAGGSLRLSCAASGSIFRYNAMGWYRQARGKERELVAAITSGDSTYYADSVKGRFTISRDNAKNTVYLQMNSLKPEDTAVYYCAVTTWANTQWEEYWGHGTQVTVSS | low polyreactivity |
| QVQIVESGGGLVQAGGSLRLSCAASGSISVANAMGWYRQAPGKERELVAAITDSGDDTYYADSVKGRFTISRDNAKNTVYFQMNSLKPEDTELYYCAVEAWSVPPYDYWGQGTQVTVSS | low polyreactivity |
| QVQIVESGGGLVQAGGSLRLSCAASGSSFTLYALGWYRQAPGKERELVAAISWSTTSTYYADSVKGRFTISRDNAKNTVYLQMNSLKPEDTAVYYCNARHWPLAYEYWGQGTQVTVSS | high polyreactivity |
| QVQIVESGGGLVQAGGSLRLSCAASGSTFAYYTMGWYRQAPGKDRELVAAISASGGSTYYADSVKGRFTISRDNGKNTVYLQMNCLKPEVSEVYYCNAESYLTGWWVDYWGQGSQVTVSS | low polyreactivity |
| QVQIVESGGGLVQAGGSLRLSCAASGSTFGGYVMGWYRQAPGKERELVAAIRWRTDSTYYADSVKGRFTISRDNAKNTVYLQMNSLKPEDTAVYYCAAPRGTRVGSHLYYWGQGTQVTVSS | high polyreactivity |
| QVQIVESGGGLVQAGGSLRLSCAASGSTFPTYAMGRYRQAPGKERELVAAITSGSGTNTYYADSVKGRFTISRDNAKNTVYLQMNSLKPEDTAVYYCAKSFRKKYGWGQGTQVTVSS | high polyreactivity |
| QVQIVESGGGLVQAGGSLRLSCAASGSTFPYNAMVWYRKEPGKERELVAVITTVGSTYYADSVKGRFTISRDNAKNTVYLQMNSLKPEDTAVYYCAAANTQSPGYDYWGQGTQVTVSS | low polyreactivity |
| QVQIVESGGGLVQAGGSLRLSCAASGSTFTRYAMGWYRQAPGKERELVAAISRTGGSRTYYADSVNGRFTISRDNAKNTVYLQMNCLKPEDTAVYYCAKGYWRYLGFLYFFPARDYWGQGTQVTVSS | high polyreactivity |
| QVQIVESGGGLVQAGGSLRLSCAASGSTFYGYAMGWYRQAPGKERELVAVINYRGDRTYFADSVKGRFTISRDNAKNTVYLQMNSLKPEDTAVYYCAARYRVYYLAGYEYWGQGTQVTVSS | high polyreactivity |
| QVQIVESGGGLVQAGGSLRLSCAASGSTINYNAMGWYRQAPGKERELVAAISTNGGSTYYADSVKGRFTISRDNAKNTVYLQMNSLKPEDTAVYYCNKVRKYSRHYDYWGQGTQVTVSS | high polyreactivity |
| QVQIVESGGGLVQAGGSLRLSCAASGYPFCRNAMGCYRQAPGKERELVAAISRSAGSTNYADSVKGRFTISRDNAMYTVYFQMNSLKPEDTAVYYGAADRYYRDPYWGNYWGQGTQVTVSS | high polyreactivity |
| QVQIVESGGGLVQAGGSLRLSCAASVIIFSKYGMGWYRQAPGKERELVAAISSSGGTTYYADSVKGRFTISRDNAKNTVYLQMNSLKPEDTAVYYCAATGRRRTYSEYEYWGQGTQVTVSS | high polyreactivity |
| QVQIVESGGGLVQAGGSLRLSCAAYGRIFVPYAMGWYRPAPGKERELVAAITWRGGSTYYAYSVKGRFTISRDNAKNTVYLQMNSMNPDDTGVYYCNSDEASAGFWFSHLQLGMDYWGQGTQVTVSS | low polyreactivity |
| QVQIVESGGGLVQAGGSLRLSCAPSGSNIDYNDMGRYRQAPGKEWELVAAISGRGTRTYYADSVKGRFTISRDNAKNTVYLQMNSLKPEDTAVYYCAASTRGRYWGRFGYWGQRTQVTVSS | high polyreactivity |
| QVQIVESGGGLVQAGGSLRLSCASSGSTFTHYAMGWYRQAPGKERELVAGISWGGSSTYYADSVKGRFTISRDNAKNTVYLQMNSLKPEDTAVYYCAAGRRGSYPGGYGYWGQGTQVTVSS | low polyreactivity |
| QVQIVESGGGLVQAGGSLRLSCASSGSTFVPNDMGSYRQAPWKERELVAAISRSGDDTYYADSVKGRFTISRDNAKNTVYFQMNSLIPEDTAVYYCNAAGRPFFLRPLRWELDYWGQGTQVTVSS | low polyreactivity |
| QVQIVESGGGLVQAGGSLRLSCGASGSTLGWYGMGWYRQAPGKERELVATISESGGSTYYADSVKGRFTISRDNAKNTVYLQMNSLKPEDTAVYYCAADDRGLISRRGYFYLSYDYWGQGTQVTVSS | low polyreactivity |
| QVQIVESGGGLVQAGGSLRLSCSASGNIFYKYAMGWFRQAPGKERELVAAITWRVVRTYYADSVKGRFTISRDNAKNTVYLQMNSLKPEDTAVYYCAALSRQSGDYWGQGTQLTVSS | high polyreactivity |

| Sequence | polyreactivity (PSR sort gate) |
| --- | --- |
| QVQIVESGGGLVQAGGSLRLSCTASGRIFYRYAMGWYRQAPGKERELVAAIRYSGGRTYYADSVKGRFTISRDNAKNTVYLQMNSLKQEDTAVYYCAADGQWYYAPFRGGVYENDYWGQGTQVTVSS | low polyreactivity |
| QVQIVESGGGLVQAGGSLRLSSAAYGSTFAIYTMGWSRQAPGKERELVATISYSGGGTYYADSVKGRFTISRDNAKNTVYLQMNSLKPEDTAVYYCAAGRRTYYGTYYYWGQGTQVNVSS | high polyreactivity |
| QVQIVESGGGLVQAGGSLRLTCAASGFTLPIYAMGWYRQAPGKEREFVAAITASGDNTYYADSVKGRFTISRDNAKNTVYLQMNSLKPEDTAVYYCAAAHWWIVGYDYWGQGTQVTVSS | low polyreactivity |
| QVQIVESGGGLVQAGGSLRLTCAASGSIFGDYAMGWYRQASGKERELVASISESGGSTYYADSVKGRFTISRDNAKNTVYLQMISLKPEDTAVYYCNTDYDYGWWDLGEYEYWGHGTQVTVSS | low polyreactivity |
| QVQIVESGGGLVQAGGSLRLTCAASGSTFYDYAMGWYRQAPGKERDLVAAITSADSTNYADSVKGRFTISRDNAKNTVYLQMNSLKPEDTAVYYCGQGTQVTVSS | low polyreactivity |
| QVQIVESGGGLVQAGGSLRLTCAASGYIFKYYAMGWYRQAPGKERELVAAITIGGNTNYADSVKGRFTISRDNAKNTVYLQMNSLKPEDTAVYYCATGGYYSAIVYGGYDYWGQGTQVTVSS | low polyreactivity |
| QVQIVESGGGLVQAGGSLRVSCAASGSIYTYNGMGWYRQAPWKERELDAAISASGGRTYYADSVKGRYTISRDNAKNTVYLQMNRLKPEDNAVYYCAARILVSGLSRFDYWGQGTQVTVSA | high polyreactivity |
| QVQIVESGGGLVQAGGSLSLICAASGYIFGNYAMGWYRQAPGKESELVADITWRGDSTYADSVKGRFTISRDNSKNTVYLQMNSLKPEDTAVYYCAADIATEYWYTGYDHWGQGTQVTVSS | low polyreactivity |
| QVQIVESGGGLVQAGRSLRLSCAASGLIFRAYAMGWYRQAPGKDRELVAAITRSGGRTYYADSVKGRFTISRDNAKNTVYLQMNTLKPVDTAVYYSAAEYGNTYSSYTYDYWGQGTQVNVSS | high polyreactivity |
| QVQIVESGGGLVQAGVSLRLSCAASGSIYYEYTMGWYRQAPGKERELVAVITSCGTTNYADSVKGRFTISRDNAKNTVFLQMNSLKPEDTAVYYCAAKRRTGGNGYWGQGTQVTVSS | high polyreactivity |
| QVQIVESGGGLVQARGSLRLSCAASGFIFGSYASGWYRQAPGKERELVAAISWNGDSTYYADSVKGRFTISRDNAKITVYLQMNSLKPEDTAVYYCNAVDVFLYQTDGLGDYWGQGTQVTVSS | low polyreactivity |
| QVQIVESGGVLVQAGGSLRLSCAASGLTFVQYDMGWYRHAPGKERELVADISGSAGDTYYADSVKGRFTISRDNAKKTVYLQMNSLKPEDTAVYYCNAYGAEYLQYGWRDYWGQGTQLTVSS | low polyreactivity |
| QVQIVESGRGLVQAGGSLRLSCAASGSIFHPKAMGWYRQAPGKERELVAAITSGGGSTYYADSVKVRYTISRDNAKNTVYLQMNSLKPEDTAVYYCNKVFVLPYKFVAWFDYWGQGTQVTVSS | low polyreactivity |
| QVQIVESVGRLVQAGCSLRLSCDASGRIFGTNAKGWYSQAPGKDRELFAAINGSDSSTYYADSVKGRFTISRDNAKNSDYLQMNSLKPEDNAVYYCNADWSRAPERSTYGYDYWGHGTQVTVSS | low polyreactivity |
| QVQIVETGGGLVQAGGSLRISCAASGSTLIRNVMGWYRQAPGKERELVAAINTRGTTTYYADSVKGRFTISRDNAKNTVYLQMNSLKPEDTAVYYCAAYAYSAYSPDGQRSRYYYWGLGTQVTVSS | high polyreactivity |
| QVQIVETGGGLVQAGGSLRLSCAASGRIFFRNPMGWYRPAPRKEREFVAAINWSGGSTYYADSVKGRFTISRDNAKNTVYLQMNSLKPEDTAVYYCAARGSRGGRRGATASMDYWGQGTQVTVSS | high polyreactivity |
| QVQLAESGGGLVQAGGSLRLSCAASGGTIGVNAMGWYRQAPGKERELVARISRIGASTHYADSVKGRFTISRDNAKNTVYLMMNSLKPEDTAVYYCAKSNGTPGNFGYWGQGTQVTVSS | low polyreactivity |
| QVQLAESGGGLVQAGVSLRISCAASGSTFSVYAMGWYRQAPGKERELVATIRRGGSTYADSVKGRFTISRDNAKITVYLQMNRLKPEDTAVYYCASDAYVSYQPMDYWGQGTQVTVSS | high polyreactivity |
| QVQLEDSGGGLVQAGARLRLSCAASGSTFAQNAMGRYRQAPGKERELVAAITYSGGSTYYADSVKGRFSISRDNAKNTVYLQMNSLKPEDTAVYYCAADVWWSYYRYDYWGQATQVTVSS | low polyreactivity |
| QVQLEDSGGGLVQAGGRLRLSCAASGYIFSDYAMGWYRQAPGKERELVADIRARGGSTYYADSVKGRFTISRDKAQNTVYLQMNSLKPEDTAVYYCNVEDPFYSGVVEFDYWGQGTQVTVSS | low polyreactivity |
| QVQLEDSGGGLVQAGGRLRLTCAASGSIFSLNAMGWSRKAPGKERELVAAINSGGTTNYADSVKGRFTISRDNAKNTVYLQMNSLKPEDSAVYYCATDGYYYYYRVYKFDYWGLGTQVTVSS | low polyreactivity |
